± gives the standard deviation of the averaged measurements.
Assay: total protein half-life in vivo (active degradation + dilution); higher = more stable protein
[1] = E. coli NCM3722 delta-clpP delta-lon delta-hslV, growth: N-lim chemostat, doubling time 6 h
[2] = E. coli NCM3722 delta-clpP, growth: N-lim chemostat, doubling time 6 h
[3] = E. coli NCM3722 delta-hslV, growth: N-lim chemostat, doubling time 6 h
[4] = E. coli NCM3722 delta-lon, growth: N-lim chemostat, doubling time 6 h
[5] = E. coli NCM3722 delta-smpB, growth: N-lim chemostat, doubling time 6 h
[6] = wild type E. coli NCM3722, growth: C-lim chemostat, doubling time 3 h
[7] = wild type E. coli NCM3722, growth: C-lim chemostat, doubling time 6 h
[8] = wild type E. coli NCM3722, growth: C-lim chemostat, doubling time 12 h
[9] = wild type E. coli NCM3722, growth: N-lim chemostat, doubling time 6 h
[10] = wild type E. coli NCM3722, growth: N-lim chemostat, doubling time 12 h
[11] = wild type E. coli NCM3722, growth: P-lim chemostat, doubling time 6 h
[12] = wild type E. coli NCM3722, growth: P-lim chemostat, doubling time 12 h

Row | Sequence | total protein half-life in vivo [1] | total protein half-life in vivo [2] | total protein half-life in vivo [3] | total protein half-life in vivo [4] | total protein half-life in vivo [5] | total protein half-life in vivo [6] | total protein half-life in vivo [7] | total protein half-life in vivo [8] | total protein half-life in vivo [9] | total protein half-life in vivo [10] | total protein half-life in vivo [11] | total protein half-life in vivo [12]
1 | MKTVRESTTLYNFLGSHNPYWRLTESSDVLRFSTTETTEPDRTLQLSAEQAARIREMTVITSSLMMSLTVDESDLSVHLVGRKINKREWAGNASAWHDTPAVARDLSHGLSFAEQVVSEAHSAIVILDSRGNIQRFNRLCEDYTGLKEHDVIGQSVFKLFMSRREAAASRRNNRVFFRSGNAYEVELWIPTCKGQRLFLFRNKFVHSGSGKNEIFLICSGTDITEERRAQERLRILANTDSITGLPNRNAMQDLIDHAINHADNNKVGVVYLDLDNFKKVNDAYGHLFGDQLLRDVSLAILSCLEHDQVLARPGGDEFLVLASNTSQSALEAMASRILTRLRLPFRIGLIEVYTSCSVGIALSPEHGSDSTAIIRHADTAMYTAKEGGRGQFCVFTPEMNQRVFEYLWLDTNLRKALENDQLVIHYQPKITWRGEVRSLEALVRWQSPERGLIPPLDFISYAEESGLIVPLGRWVILDVVRQVAKWRDKGINLRVAVNISARQLADQTIFTALKQVLQELNFEYCPIDVELTESCLIENDELALSVIQQFSQLGAQVHLDDFGTGYSSLSQLARFPIDAIKLDQVFVRDIHKQPVSQSLVRAIVAVAQALNLQVIAEGVESAKEDAFLTKNGINERQGFLFAKPMPAVAFERWYKRYLKRA | 6.59 ± 1.2 h | 2.14 h | 2.36 ± 0.18 h | 3.107 ± 0.019 h | 1.94 ± 0.029 h | 1.58 ± 0.59 h | 4.6 ± 2.3 h | 5.35 h | 3.27 ± 0.56 h | 3.63 h | – | –
2 | MTSENPLLALREKISALDEKLLALLAERRELAVEVGKAKLLSHRPVRDIDRERDLLERLITLGKAHHLDAHYITRLFQLIIEDSVLTQQALLQQHLNKINPHSARIAFLGPKGSYSHLAARQYAARHFEQFIESGCAKFADIFNQVETGQADYAVVPIENTSSGAINDVYDLLQHTSLSIVGEMTLTIDHCLLVSGTTDLSTINTVYSHPQPFQQCSKFLNRYPHWKIEYTESTSAAMEKVAQAKSPHVAALGSEAGGTLYGLQVLERIEANQRQNFTRFVVLARKAINVSDQVPAKTTLLMATGQQAGALVEALLVLRNHNLIMTRLESRPIHGNPWEEMFYLDIQANLESAEMQKALKELGEITRSMKVLGCYPSENVVPVDPT [P0A9J8] | 5.3 ± 1.8 h | 4.03 ± 0.25 h | 4.9 ± 1.2 h | 4.67 ± 0.14 h | 4.1437 ± 0.0033 h | 2.62 ± 0.6 h | 5.375 ± 0.04 h | 11 ± 0.42 h | 4.129 ± 0.037 h | 6.55 ± 0.09 h | 5.88 ± 0.58 h | 11.77 ± 0.076 h
3 | MARSKTAQPKHSLRKIAVVVATAVSGMSVYAQAAVEPKEDTITVTAAPAPQESAWGPAATIAARQSATGTKTDTPIQKVPQSISVVTAEEMALHQPKSVKEALSYTPGVSVGTRGASNTYDHLIIRGFAAEGQSQNNYLNGLKLQGNFYNDAVIDPYMLERAEIMRGPVSVLYGKSSPGGLLNMVSKRPTTEPLKEVQFKAGTDSLFQTGFDFSDSLDDDGVYSYRLTGLARSANAQQKGSEEQRYAIAPAFTWRPDDKTNFTFLSYFQNEPETGYYGWLPKEGTVEPLPNGKRLPTDFNEGAKNNTYSRNEKMVGYSFDHEFNDTFTVRQNLRFAENKTSQNSVYGYGVCSDPANAYSKQCAALAPADKGHYLARKYVVDDEKLQNFSVDTQLQSKFATGDIDHTLLTGVDFMRMRNDINAWFGYDDSVPLLNLYNPVNTDFDFNAKDPANSGPYRILNKQKQTGVYVQDQAQWDKVLVTLGGRYDWADQESLNRVAGTTDKRDDKQFTWRGGVNYLFDNGVTPYFSYSESFEPSSQVGKDGNIFAPSKGKQYEVGVKYVPEDRPIVVTGAVYNLTKTNNLMADPEGSFFSVEGGEIRARGVEIEAKAALSASVNVVGSYTYTDAEYTTDTTYKGNTPAQVPKHMASLWADYTFFDGPLSGLTLGTGGRYTGSSYGDPANSFKVGSYTVVDALVRYDLARVGMAGSNVALHVNNLFDREYVASCFNTYGCFWGAERQVVATATFRF | 6.92 ± 0.69 h | 6.41 ± 0.62 h | 6.62 ± 0.65 h | 6.11 ± 0.76 h | – | 3.36 ± 0.23 h | 6.64 ± 0.37 h | 14.3 ± 1.2 h | 6.14 ± 0.072 h | 11.6 ± 6.1 h | – | 13 ± 0.45 h
4 | MSRVNPLSSLSLLAVLVLAGCSSQAPQPLKKGEKAIDVASVVRQKMPASVKDRDAWAKDLATTFESQGLAPTLENVCSVLAVAQQESNYQADPAVPGLSKIAWQEIDRRAERMHIPAFLVHTALKIKSPNGKSYSERLDSVRTEKQLSAIFDDLINMVPMGQTLFGSLNPVRTGGPMQVSIAFAEQHTKGYPWKMDGTVRQEVFSRRGGLWFGTYHLLNYPASYSAPIYRFADFNAGWYASRNAAFQNAVSKASGVKLALDGDLIRYDSKEPGKTELATRKLAAKLGMSDSEIRRQLEKGDSFSFEETALYKKVYQLAETKTGKSLPREMLPGIQLESPKITRNLTTAWFAKRVDERRARCMKQ | 6.06 ± 0.21 h | – | – | – | 5.8 ± 0.24 h | 3.28 ± 0.2 h | 6.11 ± 0.086 h | 11.2 ± 0.54 h | 6.93 ± 0.84 h | 12.9 ± 0.39 h | 6.11 ± 0.4 h | 12.4 ± 0.53 h
5 | MICRFIDTHCHFDFPPFSGDEEASLQRAAQAGVGKIIVPATEAENFARVLALAENYQPLYAALGLHPGMLEKHSDVSLEQLQQALERRPAKVVAVGEIGLDLFGDDPQFERQQWLLDEQLKLAKRYDLPVILHSRRTHDKLAMHLKRHDLPRTGVVHGFSGSLQQAERFVQLGYKIGVGGTITYPRASKTRDVIAKLPLASLLLETDAPDMPLNGFQGQPNRPEQAARVFAVLCELRREPADEIAQALLNNTYTLFNVP | 5.92 ± 0.41 h | 4.26 ± 0.21 h | 4.72 ± 0.12 h | 6.38 ± 1.4 h | 4.45 ± 0.36 h | 3.12 ± 0.34 h | > 8 h | 9.45 ± 4.5 h | 4.57 ± 0.41 h | 8.41 ± 1.9 h | – | 12.3 ± 0.15 h
6 | MSTLEQTIGNTPLVKLQRMGPDNGSEVWLKLEGNNPAGSVKDRAALSMIVEAEKRGEIKPGDVLIEATSGNTGIALAMIAALKGYRMKLLMPDNMSQERRAAMRAYGAELILVTKEQGMEGARDLALEMANRGEGKLLDQFNNPDNPYAHYTTTGPEIWQQTGGRITHFVSSMGTTGTITGVSRFMREQSKPVTIVGLQPEEGSSIPGIRRWPTEYLPGIFNASLVDEVLDIHQRDAENTMRELAVREGIFCGVSSGGAVAGALRVAKANPDAVVVAIICDRGDRYLSTGVFGEEHFSQGAGI | 6.17 ± 1.7 h | 4.5 ± 0.098 h | 4.55 ± 0.61 h | 4.81 ± 0.087 h | 4.19 ± 0.058 h | 2.95 ± 0.34 h | 6.01 ± 0.21 h | 10.2 ± 0.28 h | 4.66 ± 0.086 h | 7.44 ± 0.39 h | 5.64 ± 0.13 h | 11.6 ± 0.56 h
7 | MSLHSPGKAFRAALTKENPLQIVGTINANHALLAQRAGYQAIYLSGGGVAAGSLGLPDLGISTLDDVLTDIRRITDVCSLPLLVDADIGFGSSAFNVARTVKSMIKAGAAGLHIEDQVGAKRCGHRPNKAIVSKEEMVDRIRAAVDAKTDPDFVIMARTDALAVEGLDAAIERAQAYVEAGAEMLFPEAITELAMYRQFADAVQVPILANITEFGATPLFTTDELRSAHVAMALYPLSAFRAMNRAAEHVYNVLRQEGTQKSVIDTMQTRNELYESINYYQYEEKLDNLFARSQVK | 3.59 ± 0.66 h | – | – | – | – | – | 4.13 ± 0.31 h | 5.82 ± 0.58 h | 4.7 h | – | – | –
8 | MNVIAILNHMGVYFKEEPIRELHRALERLNFQIVYPNDRDDLLKLIENNARLCGVIFDWDKYNLELCEEISKMNENLPLYAFANTYSTLDVSLNDLRLQISFFEYALGAAEDIANKIKQTTDEYINTILPPLTKALFKYVREGKYTFCTPGHMGGTAFQKSPVGSLFYDFFGPNTMKSDISISVSELGSLLDHSGPHKEAEQYIARVFNADRSYMVTNGTSTANKIVGMYSAPAGSTILIDRNCHKSLTHLMMMSDVTPIYFRPTRNAYGILGGIPQSEFQHATIAKRVKETPNATWPVHAVITNSTYDGLLYNTDFIKKTLDVKSIHFDSAWVPYTNFSPIYEGKCGMSGGRVEGKVIYETQSTHKLLAAFSQASMIHVKGDVNEETFNEAYMMHTTTSPHYGIVASTETAAAMMKGNAGKRLINGSIERAIKFRKEIKRLRTESDGWFFDVWQPDHIDTTECWPLRSDSTWHGFKNIDNEHMYLDPIKVTLLTPGMEKDGTMSDFGIPASIVAKYLDEHGIVVEKTGPYNLLFLFSIGIDKTKALSLLRALTDFKRAFDLNLRVKNMLPSLYREDPEFYENMRIQELAQNIHKLIVHHNLPDLMYRAFEVLPTMVMTPYAAFQKELHGMTEEVYLDEMVGRINANMILPYPPGVPLVMPGEMITEESRPVLEFLQMLCEIGAHYPGFETDIHGAYRQADGRYTVKVLKEESKK [P0A9H3] | – | 5.68 h | – | – | – | – | – | – | – | – | – | 11.6 h
9 | MMSESNKQQAVNKLTEIVANFTAMISTRMPDDVVDKLKQLKDAETSSMGKIIYHTMFDNMQKAIDLNRPACQDTGEIMFFVKVGSRFPLLGELQSILKQAVEEATVKAPLRHNAVEIFDEVNTGKNTGSGVPWVTWDIIPDNDDAEIEVYMAGGGCTLPGRSKVLMPSEGYEGVVKFVFENISTLAVNACPPVLVGVGIATSVETAAVLSRKAILRPIGSRHPNPKAAELELRLEEGLNRLGIGPQGLTGNSSVMGVHIESAARHPSTIGVAVSTGCWAHRRGTLLVHADLTFENLSHTRSAL | – | 6.19 h | 6.18 h | 6.4 h | – | – | – | – | 6.42 h | – | 5.88 h | –
10 | MTRLTLALDVMGGDFGPSVTVPAALQALNSNSQLTLLLVGNSDAITPLLAKADFEQRSRLQIIPAQSVIASDARPSQAIRASRGSSMRVALELVKEGRAQACVSAGNTGALMGLAKLLLKPLEGIERPALVTVLPHQQKGKTVVLDLGANVDCDSTMLVQFAIMGSVLAEEVVEIPNPRVALLNIGEEEVKGLDSIRDASAVLKTIPSINYIGYLEANELLTGKTDVLVCDGFTGNVTLKTMEGVVRMFLSLLKSQGEGKKRSWWLLLLKRWLQKSLTRRFSHLNPDQYNGACLLGLRGTVIKSHGAANQRAFAVAIEQAVQAVQRQVPQRIAARLESVYPAGFELLDGGKSGTLR | – | 6.24 ± 1.2 h | 5.82 ± 0.97 h | – | 5.36 ± 0.15 h | 2.67 ± 0.076 h | 5.52 ± 0.33 h | 10.8 ± 1.9 h | 5.32 ± 0.21 h | 9.51 ± 0.53 h | 5.34 ± 0.72 h | 8.85 ± 1.9 h
11 | MNTRWQQAGQKVKPGFKLAGKLVLLTALRYGPAGVAGWAIKSVARRPLKMLLAVALEPLLSRAANKLAQRYKR [P0AFV8] | 3.32 ± 0.39 h | – | – | – | – | – | – | – | – | – | – | –
12 | MTTLTAQQIACVYAWLAQLFSRELDDEQLTQIASAQMAEWFSLLKSEPPLTAAVNELENRIATLTVRDDARLELAADFCGLFLMTDKQAALPYASAYKQDEQEIKRLLVEAGMETSGNFNEPADHLAIYLELLSHLHFSLGEGTVPARRIDSLRQKTLTALWQWLPEFVARCRQYDSFGFYAALSQLLLVLVECDHQNR | 5.85 h | – | – | – | – | – | 4.24 h | – | – | – | – | 9.47 ± 1.7 h
